Measured values published in the supplement of paper PMC7125110.
± gives the standard error. Variants at the floor of the assay were thinned out.

B1: glmS ribozyme (parent)
chain: AUAAAAGCGCCAGAACUACAGAAAUGUAGUUGACGAGGAGGAGGUUUAUCGAAUUUUCGGCGGAUGCCUCCAAA

Variants of: B1
Test: self-cleavage kobs at 2500 uM GlcN6P; higher = faster cleavage; RNA array
Details: with glucosamine-6-phosphate
Method in brief: (§1)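 Glucosamine-6-phosphate, from 40 μM to 10 mM in HEPES/KCl/Mg(OAc)2 buffer, was flowed over sequenced MiSeq chips carrying barcoded ribozyme variants transcribed in situ by E. coli RNA polymerase. A hybridised Cy3 probe tracked the variants at 37 °C as tiles were imaged over ~14 h. kobs, kcat and KM were obtained by fitting normalised per-tile medians to exponential decays and then applying weighted Michaelis–Menten fits across concentrations.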

First: A36C U49A U56A
Second: C50G C58G G62C
The “self-cleavage kobs at 2500 uM GlcN6P” value of the first is lower: < 1e-05 s⁻¹ for the first, 0.000553 ± 0.00021 s⁻¹ for the second.

C34G U46A U47A U65C C68G and G35U G60A C68U cannot be ordered by “self-cleavage kobs at 2500 uM GlcN6P” value: < 1e-05 s⁻¹ for the first, < 1e-05 s⁻¹ for the second.

First: A39U A53U C70G
Second: G37A C68A C70U
The “self-cleavage kobs at 2500 uM GlcN6P” value of the first is higher: 0.0003 ± 7.6e-05 s⁻¹ for the first, < 1e-05 s⁻¹ for the second.

G37A C68A C70G and A39U A64C C70G cannot be ordered by “self-cleavage kobs at 2500 uM GlcN6P” value: < 1e-05 s⁻¹ for the first, < 1e-05 s⁻¹ for the second.

A36U G38C U47G and G44C C70A C71U cannot be ordered by “self-cleavage kobs at 2500 uM GlcN6P” value: < 1e-05 s⁻¹ for the first, < 1e-05 s⁻¹ for the second.

A39C A53G C58A C61A and U46G G59U G60U cannot be ordered by “self-cleavage kobs at 2500 uM GlcN6P” value: < 1e-05 s⁻¹ for the first, < 1e-05 s⁻¹ for the second.

U56C C58U G63A and G37U A39U G43U C67G cannot be ordered by “self-cleavage kobs at 2500 uM GlcN6P” value: < 1e-05 s⁻¹ for the first, < 1e-05 s⁻¹ for the second.

First: G66U C68U C71G
Second: A39G A42C G43A
The “self-cleavage kobs at 2500 uM GlcN6P” value of the first is higher: 5.06e-05 ± 2.1e-05 s⁻¹ for the first, < 1e-05 s⁻¹ for the second.

First: G38C C50A U65A
Second: U57A C61G C70G
The “self-cleavage kobs at 2500 uM GlcN6P” value of the first is lower: < 1e-05 s⁻¹ for the first, 3.93e-05 ± 1.9e-05 s⁻¹ for the second.

Going from A53G C58U to U46G U47A C71A, the “self-cleavage kobs at 2500 uM GlcN6P” value rises from 1.96e-05 ± 7.8e-06 s⁻¹ to 0.00116 ± 0.00028 s⁻¹ (59-fold).

G35C C68U C71A and A42U C50G G51C U69G C71G cannot be ordered by “self-cleavage kobs at 2500 uM GlcN6P” value: < 1e-05 s⁻¹ for the first, < 1e-05 s⁻¹ for the second.

A39U G41U C50G and G40C U47G G51A cannot be ordered by “self-cleavage kobs at 2500 uM GlcN6P” value: < 1e-05 s⁻¹ for the first, < 1e-05 s⁻¹ for the second.

C34U G44U U49C G59A C61A and G41A A52C C67G C71A cannot be ordered by “self-cleavage kobs at 2500 uM GlcN6P” value: < 1e-05 s⁻¹ for the first, < 1e-05 s⁻¹ for the second.

Compared with U45A A48U, G35U G37U G43U G44A is lower in “self-cleavage kobs at 2500 uM GlcN6P” value: 0.0011 ± 0.00038 s⁻¹ for the first, < 1e-05 s⁻¹ for the second.

Going from A39C U54A U55C to A36U U65A C68U, the “self-cleavage kobs at 2500 uM GlcN6P” value falls from 0.00249 ± 0.00052 s⁻¹ to < 1e-05 s⁻¹.

G35U G40U U49G and G37U U56C C67A cannot be ordered by “self-cleavage kobs at 2500 uM GlcN6P” value: < 1e-05 s⁻¹ for the first, < 1e-05 s⁻¹ for the second.

Going from A39U G44U A53U to A42G U65A G66U, the “self-cleavage kobs at 2500 uM GlcN6P” value falls from 0.000583 ± 0.00016 s⁻¹ to 7.25e-05 ± 2.4e-05 s⁻¹ (8-fold).

First: U47G U54G U57C
Second: C34A A36G G38U U69G
The “self-cleavage kobs at 2500 uM GlcN6P” value of the first is 2.5-fold higher: 0.00011 ± 2.6e-05 s⁻¹ for the first, 4.35e-05 ± 2e-05 s⁻¹ for the second.

Going from C50U G59A C70G C71U to G35A A48C G51A U56G, the “self-cleavage kobs at 2500 uM GlcN6P” value falls from 5.06e-05 ± 1.7e-05 s⁻¹ to < 1e-05 s⁻¹.

Compared with G38C U46G G59A, A42U U45G A53C is higher in “self-cleavage kobs at 2500 uM GlcN6P” value: < 1e-05 s⁻¹ for the first, 0.000111 ± 2.6e-05 s⁻¹ for the second.

C34G G43C U46G U69G and C34G G35U G43U cannot be ordered by “self-cleavage kobs at 2500 uM GlcN6P” value: < 1e-05 s⁻¹ for the first, < 1e-05 s⁻¹ for the second.

G40U G43U C70G and G40U C50A U55C cannot be ordered by “self-cleavage kobs at 2500 uM GlcN6P” value: < 1e-05 s⁻¹ for the first, < 1e-05 s⁻¹ for the second.

First: G40C U54G G66A
Second: C34G G38A C70G
The “self-cleavage kobs at 2500 uM GlcN6P” value of the first is 28-fold higher: 0.00142 ± 0.00027 s⁻¹ for the first, 5.16e-05 ± 2.4e-05 s⁻¹ for the second.

G38U A48G U55C C67G and U46A A48U G51C cannot be ordered by “self-cleavage kobs at 2500 uM GlcN6P” value: < 1e-05 s⁻¹ for the first, < 1e-05 s⁻¹ for the second.

U47C A52G G60C U65G C67A and G44A U49C cannot be ordered by “self-cleavage kobs at 2500 uM GlcN6P” value: < 1e-05 s⁻¹ for the first, < 1e-05 s⁻¹ for the second.

Compared with G40U A48G C68U, G43C U45A C68G is higher in “self-cleavage kobs at 2500 uM GlcN6P” value: < 1e-05 s⁻¹ for the first, 0.00405 ± 0.0014 s⁻¹ for the second.

A42U A48G A52G C58G and A36G U55A U65G cannot be ordered by “self-cleavage kobs at 2500 uM GlcN6P” value: < 1e-05 s⁻¹ for the first, < 1e-05 s⁻¹ for the second.

Going from A52C U69G to C34G U46C, the “self-cleavage kobs at 2500 uM GlcN6P” value falls from 9.19e-05 ± 4.2e-05 s⁻¹ to < 1e-05 s⁻¹.

Going from G37C U57C C58G to C34U C50G C67A, the “self-cleavage kobs at 2500 uM GlcN6P” value rises from < 1e-05 s⁻¹ to 8.66e-05 ± 2.1e-05 s⁻¹.

G35C A36G G40U C70U and U45G G63U C70G cannot be ordered by “self-cleavage kobs at 2500 uM GlcN6P” value: < 1e-05 s⁻¹ for the first, < 1e-05 s⁻¹ for the second.

A42G G51C G62A and A36U G38A U47C cannot be ordered by “self-cleavage kobs at 2500 uM GlcN6P” value: < 1e-05 s⁻¹ for the first, < 1e-05 s⁻¹ for the second.

G37A G41A C61U and A36U G43C A53C C71G cannot be ordered by “self-cleavage kobs at 2500 uM GlcN6P” value: < 1e-05 s⁻¹ for the first, < 1e-05 s⁻¹ for the second.

A36U G40U A64C and C34U U45G C70A cannot be ordered by “self-cleavage kobs at 2500 uM GlcN6P” value: < 1e-05 s⁻¹ for the first, < 1e-05 s⁻¹ for the second.

First: A53C U65C
Second: C34A A48G U57C
The “self-cleavage kobs at 2500 uM GlcN6P” value of the first is higher: 0.000159 ± 3.9e-05 s⁻¹ for the first, < 1e-05 s⁻¹ for the second.

G35U U47A C61A and U46C G60A C70G cannot be ordered by “self-cleavage kobs at 2500 uM GlcN6P” value: < 1e-05 s⁻¹ for the first, < 1e-05 s⁻¹ for the second.

First: U54G C68U C70U
Second: A39C U46A U47G A48C G63A
The “self-cleavage kobs at 2500 uM GlcN6P” value of the first is higher: 0.00037 ± 6.8e-05 s⁻¹ for the first, < 1e-05 s⁻¹ for the second.

G51C G66C C71A and U46G A48G U57G G62U cannot be ordered by “self-cleavage kobs at 2500 uM GlcN6P” value: < 1e-05 s⁻¹ for the first, < 1e-05 s⁻¹ for the second.

G37C U45G U46G G60C A64C and A48C U49A U55C cannot be ordered by “self-cleavage kobs at 2500 uM GlcN6P” value: < 1e-05 s⁻¹ for the first, < 1e-05 s⁻¹ for the second.

Compared with A48U U69A, C34A G35U G59U is lower in “self-cleavage kobs at 2500 uM GlcN6P” value: 2.8e-05 ± 1.3e-05 s⁻¹ for the first, < 1e-05 s⁻¹ for the second.

Going from A39C U47C U65A to A36G G40C C61U G63C A64C, the “self-cleavage kobs at 2500 uM GlcN6P” value falls from 9.45e-05 ± 3.8e-05 s⁻¹ to < 1e-05 s⁻¹.

Variants of: B1
Test: self-cleavage kobs at 10000 uM GlcN6P; higher = faster cleavage; RNA array
Details: with glucosamine-6-phosphate
Method in brief: as §1

Compared with C34G U46A U47A U65C C68G, A39U A53U C70G is higher in “self-cleavage kobs at 10000 uM GlcN6P” value: < 1e-05 s⁻¹ for the first, 0.000276 ± 5e-05 s⁻¹ for the second.

Going from A6C C8U A36C G37U to A53G C58U, the “self-cleavage kobs at 10000 uM GlcN6P” value rises from < 1e-05 s⁻¹ to 0.000105 ± 9.8e-06 s⁻¹.

A36U G38A U47C and C34U U45G C70A cannot be ordered by “self-cleavage kobs at 10000 uM GlcN6P” value: < 1e-05 s⁻¹ for the first, < 1e-05 s⁻¹ for the second.

With A6C A14G A64G the “self-cleavage kobs at 10000 uM GlcN6P” value was 0.000191 ± 3.2e-05 s⁻¹.
